Results published in patent US20260265360A1, “USE OF ANTI-FAM19A5 ANTAGONISTS FOR TREATING HEARING DISORDERS” (NEURACLE SCIENCE CO., LTD., priority 2023, published 2026).

B1: 2-13: anti-FAM19A5 antibody; VH SEQ ID NO: 35, VL SEQ ID NO: 39 (antibody, V domains shown)
VH: AVTLDESGGGLQTPGGALSLVCKASGFTFSSHGMFWVRQTPGKGLEYVAEITNDGSGTNYGSAVKGRATISRDNGQSTVRLQLNNLRAEDTGTYFCARSTYECPGGFSCWGDTGQIDAWGHGTEVIVSS
VL: ALTQPSSVSANPGETVKITCSGGSYSYGWFQQKSPGSALVTVIYWDDERPSDIPSRFSGALSGSTNTLTITGVQADDEAVYFCGTEDISGTAGVFGAGTTLTVL
modifications: 2-13 VH; 2-13 VL
B2: 1-30: anti-FAM19A5 antibody, de-immunized variant of 3-2; VH SEQ ID NO: 235, VL SEQ ID NO: 240 (antibody, V domains shown)
VH: AVTLDESGGGLQTPGGALRLSCKASGFDFESFNMFWVRQAPGKGLEYVSQISSSEEDENYAPAVKGRATISRDNGQSTLYLQMNSLRAEDTGTYYCAKSSYDCPYGHCSSGVDSAGEIDAWGHGTEVIVSS
VL: ALTQPSSVSANPGETVKITCSGGGSEEEQYYYGWYQQKPGSAPVTLIYQDEERPSDIPSRFSGSTSGSTATLTITGVQAGDEADYYCGSWDSEDEDHFGAGTTLTVL
modifications: Low-PI VH, 1-30 VH, 1-17 VH, 1-32 VH, 4-11 VH, 6-10 VH; 1-30 VL

Assays:
[1] = tested on: primary mouse spiral ganglion neurons; test: Promotion of neurite outgrowth; format: cell-based; conditions: neurons isolated at postnatal day 4; neurofilament staining
Protocol: (§1) Sprial ganglion neuron were cultured in culture media consisting of high-glucose (4.5 mg/mL) DMEM, 0.1 mg/ml penicillin, 0.1 mg/mL streptomycin, N2 supplement, and 10 µg/mL insulin and was designated here as “5K” because in this media, [K+]=5.4 mM. A depolarizing media, designated as “30K,” in which Na was replaced with equimolar K to raise [K] to 30 mM while maintaining osmolarity was also used.
Dissociated spiral ganglion cell cultures were prepared from postnatal day 4-5 (P4-5) cochleae and maintained using a procedure modified from the methods described by Bok et al., J Neurosci 23 (3): 777-87 (2003), which is incorporated herein by reference in its entirety. The cochleae were aseptically dissected from the temporal bone and submerged in ice-cold HBSS (Gibco). Subsequent steps involved the removal of the bony cochlear capsule and the spiral ligament. The organ of Corti, surrounding connective tissue and modiolar bone was removed while preserving the spiral ganglion neurons within the modiolus. […]
Neurite outgrowth was quantified by measuring the total length of neurites per neuron. Neurons were stained with NF200 at either 2 or 3 DIV, and neurite lengths were measured using the Fiji (Image J). Individual neurons were manually selected, and neurite lengths were determined using the Simple Neurite Tracer plugin. […]

[2] = tested on: noise-induced hearing loss mouse model; test: Dosage effect in noise-induced hearing loss mouse model (ABR threshold); format: in vivo
Protocol: FIGS. 15A, 15B, 15C, 15D, and 15E show the dose-dependent effects of FAM19A5 antagonist administration on ABR threshold in a noise-induced hearing loss mouse model. FIG. 15A provides a schematic of the experimental design. As shown, one day after noise exposure, the animals received varying concentrations of the anti-FAM19A5 antibody (1-30) (i.e., 0 mg/kg, 3 mg/kg, 7 mg/kg, 15 mg/kg, and 30 mg/kg). After noise exposure, control animals received a human anti-IgG antibody (30 mg/kg). ABR threshold was measured at one day after noise exposure and at two weeks after noise exposure. FIG. 15B provides a comparison of ABR threshold for the different treatment groups across a frequency of 0 kHz to 64 kHz at one day after noise exposure. FIG. 15C provides the same data shown in FIG. 15B except as bar graphs. FIG. 15D provides a comparison of ABR threshold for the different treatment groups across a frequency of 0 kHz to 64 kHz at two weeks after noise exposure. FIG. 15E provides the same data shown in […] except as bar graphs. In each of FIGS. 15B-15E, ABR threshold prior to noise exposure is also shown (“BN”). In both FIGS. 15C and 15E, for each of the frequency groups shown, the first bar (from the left) corresponds to pre-noise exposure (“BN”), the second bar corresponds to animal streated with the control anti-IgG antibody (“hIgG”), the third bar corresponds to animals treated with 0 mg/kg of the anti-FAM19A5 antibody, the fourth bar corresponds to animals treated with 3 mg/kg of the anti-FAM19A5 antibody, the fifth bar corresponds to animals treated with 7 mg/kg of the anti-FAM19A5 antibody, the sixth bar corresponds to animals treated with 15 mg/kg of the anti-FAM19A5 antibody, and the last bar corresponds to animals treated with 30 mg/kg of the anti-FAM19A5 antibody.
To assess whether the above-described therapeutic effects of FAM19A5 antagonists on hearing loss is dose dependent, the noise-induced hearing loss mouse model described in Example 3 was used. […] ABR threshold was measured prior to noise exposure, one day after noise exposure, and two weeks after noise exposure.

[3] = tested on: mouse primary spiral ganglion neurons; test: Reversal of FAM19A5-induced inhibition of neurite outgrowth; format: cell-based; conditions: 10 μM FAM19A5 protein co-treated with 100 nM antibody, 3 DIV
Protocol: as §1
Dissociated spiral ganglion cell cultures were prepared from postnatal day 4-5 (P4-5) cochleae and maintained using a procedure modified from the methods described by Bok et al., J Neurosci 23 (3): 777-87 (2003), which is incorporated herein by reference in its entirety. […]
Neurite outgrowth was quantified by measuring the total length of neurites per neuron. Neurons were stained with NF200 at either 2 or 3 DIV, and neurite lengths were measured using the Fiji (Image J). Individual neurons were manually selected, and neurite lengths were determined using the Simple Neurite Tracer plugin.
Briefly, mouse primary spiral ganglion neurons (cultured and processed as described in Example 11) were treated with a FAM19A5 protein (10 μM) alone or in combination with an anti-FAM19A5 antibody (1-30) (100 nM) at 0 DIV (day in vitro). […] Then, at 3 DIV, the neurons were stained for neurofilament protein (NF200) expression and the average neurite length quantified.

| Molecule | neurite length vs control human IgG antibody [1] | effect on ABR threshold by dose ([2]; one day post noise exposure, 15 mg/kg and 30 mg/kg) | ABR threshold across frequencies ([2]; one day post noise exposure, 1, 3, 7, 15, 30 mg/kg i.v.) | ABR threshold ([2]; two weeks post noise exposure, doses of 7, 15 or 30 mg/kg, many of the frequencies) | neurite growth in FAM19A5-treated neurons [3] |
| --- | --- | --- | --- | --- | --- |
| B1 | promoting neurite outgrowth | – | – | – | – |
| B2 | promoting neurite outgrowth | greatest effects | dose-dependent reduction | significant reduction | less reduction in neurite growth and comparable to the neurons from the control group |
